# In article PMC10786891, “Massively parallel profiling of RNA-targeting CRISPR-Cas13d”:
# T1: EsCas13d, nuclease-dead (Eubacterium siraeum, UniProt B0MS50, R295A;H300A;R849A;H854A)
# T1 sequence: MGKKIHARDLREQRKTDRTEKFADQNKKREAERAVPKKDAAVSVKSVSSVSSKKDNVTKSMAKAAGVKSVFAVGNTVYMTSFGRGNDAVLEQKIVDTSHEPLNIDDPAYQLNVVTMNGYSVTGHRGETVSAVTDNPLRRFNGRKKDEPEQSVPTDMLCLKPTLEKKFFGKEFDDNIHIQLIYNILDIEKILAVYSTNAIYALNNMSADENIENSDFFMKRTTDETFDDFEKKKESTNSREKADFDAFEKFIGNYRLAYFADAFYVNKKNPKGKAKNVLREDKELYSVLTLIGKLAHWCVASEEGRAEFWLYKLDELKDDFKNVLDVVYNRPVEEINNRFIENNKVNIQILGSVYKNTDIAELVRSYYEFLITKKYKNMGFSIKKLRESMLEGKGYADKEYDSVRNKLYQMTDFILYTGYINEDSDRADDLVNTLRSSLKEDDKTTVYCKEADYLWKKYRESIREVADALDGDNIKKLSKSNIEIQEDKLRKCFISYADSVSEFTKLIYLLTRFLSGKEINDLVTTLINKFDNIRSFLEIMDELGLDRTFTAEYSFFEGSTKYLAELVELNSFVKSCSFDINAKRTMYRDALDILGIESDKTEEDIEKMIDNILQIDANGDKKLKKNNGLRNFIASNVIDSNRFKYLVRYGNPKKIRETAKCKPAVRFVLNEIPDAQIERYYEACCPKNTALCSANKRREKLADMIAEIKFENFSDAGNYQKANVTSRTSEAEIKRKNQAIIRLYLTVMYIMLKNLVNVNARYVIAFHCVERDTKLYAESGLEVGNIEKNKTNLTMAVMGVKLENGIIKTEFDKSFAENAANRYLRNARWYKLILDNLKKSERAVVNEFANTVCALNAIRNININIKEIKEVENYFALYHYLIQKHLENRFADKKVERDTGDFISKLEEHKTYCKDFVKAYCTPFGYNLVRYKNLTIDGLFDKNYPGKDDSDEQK
# Target: T1, EsCas13d, nuclease-dead
# Assay: crRNA (strand 1, pre-loaded); Mg2+; 40 mM Tris-HCl pH 7.5, 150 mM NaCl, 6 mM MgCl2, 1 mM DTT, 0.1% Tween-20, 0.2 mg/ml BSA; 25 C; 10 min per concentration, then washed
# Settings: tags: His6-TwinStrep-SUMO cleaved; N-terminal SNAP kept (SNAP-Surface 488); label: 3' end held by stalled T7 RNA polymerase
row,Binder,Kd [nM]
1,"target 1 G12A,G13U (mixed) RNA 1: CACCCGUGCAAAAAUGCAGGGGUCUAAAACUGAGCGGAUAACCUCUCUAUGG RNA 2: GGGAAUGGAUCCACAUCUACGAAUUCGUACCAUAGAGAUAUUAUCCGCUCACCGAGAUCGGAAGAGCACACGU",14.6 ± 1.4
2,"target 1 insC 3' of 15,insG 3' of 11 (mixed) RNA 1: CACCCGUGCAAAAAUGCAGGGGUCUAAAACUGAGCGGAUAACCUCUCUAUGG RNA 2: GGGAAUGGAUCCACAUCUACGAAUUCGUACCAUAGAGCAGGUGUAUCCGCUCACCGAGAUCGGAAGAGCACACGU",41 ± 6
3,"target 1 C2A,U19C (mixed) RNA 1: CACCCGUGCAAAAAUGCAGGGGUCUAAAACUGAGCGGAUAACCUCUCUAUGG RNA 2: GGGAAUGGAUCCACAUCUACGAAUUCGUACCACAGAGAGGUUAUCCGCUAACCGAGAUCGGAAGAGCACACGU",22.1 ± 1.6
4,"target 1 C2G,G17U (mixed) RNA 1: CACCCGUGCAAAAAUGCAGGGGUCUAAAACUGAGCGGAUAACCUCUCUAUGG RNA 2: GGGAAUGGAUCCACAUCUACGAAUUCGUACCAUAUAGAGGUUAUCCGCUGACCGAGAUCGGAAGAGCACACGU",14.5 ± 0.7
5,"target 1 insG 3' of 7,insC 3' of 3 (mixed) RNA 1: CACCCGUGCAAAAAUGCAGGGGUCUAAAACUGAGCGGAUAACCUCUCUAUGG RNA 2: GGGAAUGGAUCCACAUCUACGAAUUCGUACCAUAGAGAGGUUAUCGCGCUCCACCGAGAUCGGAAGAGCACACGU",6.68 ± 0.19
6,"target 1 insA 3' of 12,insG 3' of 4 (mixed) RNA 1: CACCCGUGCAAAAAUGCAGGGGUCUAAAACUGAGCGGAUAACCUCUCUAUGG RNA 2: GGGAAUGGAUCCACAUCUACGAAUUCGUACCAUAGAGAGGAUUAUCCGCGUCACCGAGAUCGGAAGAGCACACGU",16.2 ± 1.1
7,"target 1 insC 3' of 11,insU 3' of 9 (mixed) RNA 1: CACCCGUGCAAAAAUGCAGGGGUCUAAAACUGAGCGGAUAACCUCUCUAUGG RNA 2: GGGAAUGGAUCCACAUCUACGAAUUCGUACCAUAGAGAGGUCUAUUCCGCUCACCGAGAUCGGAAGAGCACACGU",40 ± 17
8,"target 1 insG 3' of 16,insU 3' of 16 (mixed) RNA 1: CACCCGUGCAAAAAUGCAGGGGUCUAAAACUGAGCGGAUAACCUCUCUAUGG RNA 2: GGGAAUGGAUCCACAUCUACGAAUUCGUACCAUAGAGUGAGGUUAUCCGCUCACCGAGAUCGGAAGAGCACACGU",44 ± 8
9,"target 1 insA 3' of 8,insU 3' of 6 (mixed) RNA 1: CACCCGUGCAAAAAUGCAGGGGUCUAAAACUGAGCGGAUAACCUCUCUAUGG RNA 2: GGGAAUGGAUCCACAUCUACGAAUUCGUACCAUAGAGAGGUUAUACCUGCUCACCGAGAUCGGAAGAGCACACGU",23.5 ± 1.4
10,"target 1 insG 3' of 14,insA 3' of 4 (mixed) RNA 1: CACCCGUGCAAAAAUGCAGGGGUCUAAAACUGAGCGGAUAACCUCUCUAUGG RNA 2: GGGAAUGGAUCCACAUCUACGAAUUCGUACCAUAGAGAGGGUUAUCCGCAUCACCGAGAUCGGAAGAGCACACGU",12.2 ± 1.4
11,"target 1 insG 3' of 20,insU 3' of 18 (mixed) RNA 1: CACCCGUGCAAAAAUGCAGGGGUCUAAAACUGAGCGGAUAACCUCUCUAUGG RNA 2: GGGAAUGGAUCCACAUCUACGAAUUCGUACCAGUAUGAGAGGUUAUCCGCUCACCGAGAUCGGAAGAGCACACGU",65 ± 15
12,"target 1 insC 3' of 13,insU 3' of 13 (mixed) RNA 1: CACCCGUGCAAAAAUGCAGGGGUCUAAAACUGAGCGGAUAACCUCUCUAUGG RNA 2: GGGAAUGGAUCCACAUCUACGAAUUCGUACCAUAGAGAGCUGUUAUCCGCUCACCGAGAUCGGAAGAGCACACGU",8.3 ± 0.4
13,"target 1 insG 3' of 6,insU 3' of 2 (mixed) RNA 1: CACCCGUGCAAAAAUGCAGGGGUCUAAAACUGAGCGGAUAACCUCUCUAUGG RNA 2: GGGAAUGGAUCCACAUCUACGAAUUCGUACCAUAGAGAGGUUAUCCGGCUCUACCGAGAUCGGAAGAGCACACGU",16.4 ± 0.9
14,"target 1 A1C,C2A (mixed) RNA 1: CACCCGUGCAAAAAUGCAGGGGUCUAAAACUGAGCGGAUAACCUCUCUAUGG RNA 2: GGGAAUGGAUCCACAUCUACGAAUUCGUACCAUAGAGAGGUUAUCCGCUACCCGAGAUCGGAAGAGCACACGU",36 ± 4
15,"target 1 insU 3' of 13,insG 3' of 3 (mixed) RNA 1: CACCCGUGCAAAAAUGCAGGGGUCUAAAACUGAGCGGAUAACCUCUCUAUGG RNA 2: GGGAAUGGAUCCACAUCUACGAAUUCGUACCAUAGAGAGUGUUAUCCGCUGCACCGAGAUCGGAAGAGCACACGU",14.4 ± 1.9
16,"target 1 insU 3' of 12,insG 3' of 2 (mixed) RNA 1: CACCCGUGCAAAAAUGCAGGGGUCUAAAACUGAGCGGAUAACCUCUCUAUGG RNA 2: GGGAAUGGAUCCACAUCUACGAAUUCGUACCAUAGAGAGGUUUAUCCGCUCGACCGAGAUCGGAAGAGCACACGU",6.9 ± 0.6
17,"target 1 insC 3' of 22,insC 3' of 13 (mixed) RNA 1: CACCCGUGCAAAAAUGCAGGGGUCUAAAACUGAGCGGAUAACCUCUCUAUGG RNA 2: GGGAAUGGAUCCACAUCUACGAAUUCGUACCCAUAGAGAGCGUUAUCCGCUCACCGAGAUCGGAAGAGCACACGU",43 ± 15
18,target 1 C2A (mixed) RNA 1: CACCCGUGCAAAAAUGCAGGGGUCUAAAACUGAGCGGAUAACCUCUCUAUGG RNA 2: GGGAAUGGAUCCACAUCUACGAAUUCGUACCAUAGAGAGGUUAUCCGCUAACCGAGAUCGGAAGAGCACACGU,9.3 ± 0.9
19,"target 1 U10A,C22A (mixed) RNA 1: CACCCGUGCAAAAAUGCAGGGGUCUAAAACUGAGCGGAUAACCUCUCUAUGG RNA 2: GGGAAUGGAUCCACAUCUACGAAUUCGUAACAUAGAGAGGUAAUCCGCUCACCGAGAUCGGAAGAGCACACGU",12.5 ± 1.2
20,"target 1 insC 3' of 17,insA 3' of 4 (mixed) RNA 1: CACCCGUGCAAAAAUGCAGGGGUCUAAAACUGAGCGGAUAACCUCUCUAUGG RNA 2: GGGAAUGGAUCCACAUCUACGAAUUCGUACCAUAGCAGAGGUUAUCCGCAUCACCGAGAUCGGAAGAGCACACGU",28.6 ± 2.3
21,"target 1 insC 3' of 18,insG 3' of 3 (mixed) RNA 1: CACCCGUGCAAAAAUGCAGGGGUCUAAAACUGAGCGGAUAACCUCUCUAUGG RNA 2: GGGAAUGGAUCCACAUCUACGAAUUCGUACCAUACGAGAGGUUAUCCGCUGCACCGAGAUCGGAAGAGCACACGU",26.8 ± 1.8
22,"target 1 insG 3' of 10,insG 3' of 9 (mixed) RNA 1: CACCCGUGCAAAAAUGCAGGGGUCUAAAACUGAGCGGAUAACCUCUCUAUGG RNA 2: GGGAAUGGAUCCACAUCUACGAAUUCGUACCAUAGAGAGGUUGAGUCCGCUCACCGAGAUCGGAAGAGCACACGU",8.8 ± 0.5
23,"target 1 insA 3' of 10,insG 3' of 4 (mixed) RNA 1: CACCCGUGCAAAAAUGCAGGGGUCUAAAACUGAGCGGAUAACCUCUCUAUGG RNA 2: GGGAAUGGAUCCACAUCUACGAAUUCGUACCAUAGAGAGGUUAAUCCGCGUCACCGAGAUCGGAAGAGCACACGU",6.44 ± 0.26
24,"target 1 insU 3' of 14,insU 3' of 12 (mixed) RNA 1: CACCCGUGCAAAAAUGCAGGGGUCUAAAACUGAGCGGAUAACCUCUCUAUGG RNA 2: GGGAAUGGAUCCACAUCUACGAAUUCGUACCAUAGAGAUGGUUUAUCCGCUCACCGAGAUCGGAAGAGCACACGU",26.6 ± 2.7
25,"target 1 U8C,G15C (mixed) RNA 1: CACCCGUGCAAAAAUGCAGGGGUCUAAAACUGAGCGGAUAACCUCUCUAUGG RNA 2: GGGAAUGGAUCCACAUCUACGAAUUCGUACCAUAGACAGGUUACCCGCUCACCGAGAUCGGAAGAGCACACGU",68 ± 11
26,"target 1 C2U,G15A (mixed) RNA 1: CACCCGUGCAAAAAUGCAGGGGUCUAAAACUGAGCGGAUAACCUCUCUAUGG RNA 2: GGGAAUGGAUCCACAUCUACGAAUUCGUACCAUAGAAAGGUUAUCCGCUUACCGAGAUCGGAAGAGCACACGU",13.7 ± 0.7
27,"target 1 insC 3' of 14,insG 3' of 6 (mixed) RNA 1: CACCCGUGCAAAAAUGCAGGGGUCUAAAACUGAGCGGAUAACCUCUCUAUGG RNA 2: GGGAAUGGAUCCACAUCUACGAAUUCGUACCAUAGAGACGGUUAUCCGGCUCACCGAGAUCGGAAGAGCACACGU",54 ± 6
28,"target 1 insU 3' of 9,insA 3' of 4 (mixed) RNA 1: CACCCGUGCAAAAAUGCAGGGGUCUAAAACUGAGCGGAUAACCUCUCUAUGG RNA 2: GGGAAUGGAUCCACAUCUACGAAUUCGUACCAUAGAGAGGUUAUUCCGCAUCACCGAGAUCGGAAGAGCACACGU",8 ± 1
